{
  "source": "patent US20220233706A1",
  "about": "(ANTIKOR BIOPHARMA, published 2022)",
  "key": {"HER2-Fc [1]": {"biological_target": "T1, HER2-Fc (UniProt P04626 23-652)", "T1 construct": "Coated at 10 µg/ml on ELISA plates; also called HER2 antigen; immobilised HER2 target antigen (ELISA); not shown: Fc part", "assay": "ELISA, plates coated with 10 µg/ml HER2-Fc, anti-myc IgG detection"}, "HER2-Fc [2]": {"biological_target": "T1, HER2-Fc", "assay": "ELISA on plates coated with 10 µg/ml HER2-Fc, detection anti-T7 peroxidase conjugate, absorption at 450 nm", "protocol": "(§1) All proteins were detected using the C-terminal T7 Tag which was not expected to be chemically modified (no lysines present). 96-well Immunosorb ELISA plates were coated with 10 μg/ml HER2-Fc in PBS, followed by the test samples, anti-T7 peroxidase conjugate. Extensive PBS washes were in between each layer and detection was with BM-Blue substrate."}, "HER2-Fc [3]": {"biological_target": "T1, HER2-Fc", "assay": "ELISA, plates coated with 10 µg/ml HER2-Fc, anti-T7 peroxidase detection", "protocol": "as §1"}, "[4]": {"biological_target": "T2, HER2 immobilised on a Biacore chip (UniProt P04626 23-652, limits assumed)", "T2 construct": "also called immobilised HER2 target antigen (Biacore SPR); HER2 chip", "assay": "Biacore SPR, HER2 amine-coupled to the chip; Acetate conjugate, DAR 16", "protocol": "(§2) A standard amine-coupling method was used to prepare all Biacore surfaces (CM5 or CM3), as follows. Flow cells were activated individually by injecting a freshly mixed solution of 0.2M EDC in 0.05 M NHS at 30 μl/min. […] Excess NHS ester was deactivated using a 1 M ethanolamine solution. […] The dissociation time was extended to 3600 s for the highest concentration. Surfaces were regenerated with 45 s injection of MgCl₂ […]."}, "[5]": {"biological_target": "T2, HER2 immobilised on a Biacore chip", "assay": "Biacore SPR, HER2 amine-coupled to the chip"}, "[6]": {"biological_target": "T2, HER2 immobilised on a Biacore chip", "assay": "Biacore SPR, HER2 amine-coupled to the chip; MMAF-C5 conjugate, DAR 7.1", "protocol": "as §2"}},
  "data": [
    {"molecule": "C6.5 scFv-SPDP conjugate, linker to antibody ratio 5.4, reduced with TCEP", "values": [
      {"measurement": "Kd", "setting": "HER2-Fc [1]", "value": 24.9, "unit": "nM"}
    ]},
    {"molecule": "C6.5 scFv, non-SPDP modified but reduced control", "values": [
      {"measurement": "Kd", "setting": "HER2-Fc [1]", "value": 42, "unit": "nM"}
    ]},
    {"molecule": "scFv (TCT)-Cemadotin ADC sample 3 (DAR 11) (scFv, Cemadotin on all but one of the surface lysine residues (11/12), DAR 10.96 by AAA, also called TCT-Cem ADC3; TCT-Cemadotin conjugate 3) scFv: SGSGGSGQVQLVQSGAEVKKPGESLKISCKGSGYSFTSYWIAWVRQMPGKGLEYMGLIYPGDSDTKYSPSFQGQVTISVDKSVSTAYLQWSSLKPSDSAVYFCARHDVGYCSSSNCAAWPEYFQHWGQGTLVTVSSGGGGSGGGGSGGGGSQSVLTQPPSVSAAPGQKVTISCSGSSSNIGNNYVSWYQQLPGTAPKLLIYGHTNRPAGVPDRFSGSKSGTSASLAISGFRSEDEADYYCAAWDDSLSGWVFGGGTKLTVLMASMTGGQQMG", "values": [
      {"measurement": "EC50 (read off the curve)", "setting": "HER2-Fc [2]", "value": "~40", "unit": "nM"},
      {"measurement": "Kd", "setting": "HER2-Fc [3]", "value": 27.5, "unit": "nM"}
    ]},
    {"molecule": "scFv (TCT)-Cemadotin ADC sample 1 (DAR 3.9) (scFv, Cemadotin (from Cemadotin-NHS, compound 2) on lysine residues, average DAR 3.9 by AAA, also called TCT-Cem ADC1; TCT-Cemadotin conjugate 1) scFv: SGSGGSGQVQLVQSGAEVKKPGESLKISCKGSGYSFTSYWIAWVRQMPGKGLEYMGLIYPGDSDTKYSPSFQGQVTISVDKSVSTAYLQWSSLKPSDSAVYFCARHDVGYCSSSNCAAWPEYFQHWGQGTLVTVSSGGGGSGGGGSGGGGSQSVLTQPPSVSAAPGQKVTISCSGSSSNIGNNYVSWYQQLPGTAPKLLIYGHTNRPAGVPDRFSGSKSGTSASLAISGFRSEDEADYYCAAWDDSLSGWVFGGGTKLTVLMASMTGGQQMG", "values": [
      {"measurement": "EC50 (read off the curve)", "setting": "HER2-Fc [2]", "value": "~4", "unit": "nM"},
      {"measurement": "Kd", "setting": "HER2-Fc [3]", "value": 3.3, "unit": "nM"}
    ]},
    {"molecule": "scFv (TCT)-Cemadotin ADC sample 2 (DAR 8.2) (scFv, Cemadotin on lysine residues, average DAR 8.2 by AAA, also called TCT-Cem ADC2; TCT-Cemadotin conjugate 2) scFv: SGSGGSGQVQLVQSGAEVKKPGESLKISCKGSGYSFTSYWIAWVRQMPGKGLEYMGLIYPGDSDTKYSPSFQGQVTISVDKSVSTAYLQWSSLKPSDSAVYFCARHDVGYCSSSNCAAWPEYFQHWGQGTLVTVSSGGGGSGGGGSGGGGSQSVLTQPPSVSAAPGQKVTISCSGSSSNIGNNYVSWYQQLPGTAPKLLIYGHTNRPAGVPDRFSGSKSGTSASLAISGFRSEDEADYYCAAWDDSLSGWVFGGGTKLTVLMASMTGGQQMG", "values": [
      {"measurement": "EC50 (read off the curve)", "setting": "HER2-Fc [2]", "value": "~20", "unit": "nM"},
      {"measurement": "Kd", "setting": "HER2-Fc [3]", "value": 15.5, "unit": "nM"}
    ]},
    {"molecule": "scFv (TCT1067)-Acetate DAR 16 (scFv, acetyl groups (from Acetate-NHS) on lysines, N-terminal amine and further residues, 16 additions by LC-MS, also called TCT1067-acetate conjugate 2) scFv: SGSGGSGQVQLVQSGAEVKKPGESLKISCKGSGYSFTSYWIAWVRQMPGKGLEYMGLIYPGDSDTKYSPSFQGQVTISVDKSVSTAYLQWSSLKPSDSAVYFCARHDVGYCTDRTCAAWPEWLGVWGQGTLVTVSSGGGGSGGGGSGGGGSQSVLTQPPSVSAAPGQKVTISCSGSSSNIGNNYVSWYQQLPGTAPKLLIYGHTNRPAGVPDRFSGSKSGTSASLAISGFRSEDEADYYCASWDYTLSGWVFGGGTKLTVLMASMTGGQQMG", "values": [
      {"measurement": "Kd", "setting": "[4]", "value": 0.021, "unit": "nM"},
      {"measurement": "koff", "setting": "[5]", "value": "7.64e-05", "unit": "s⁻¹"},
      {"measurement": "kon", "setting": "[5]", "value": "3.63e+06", "unit": "M⁻¹ s⁻¹"}
    ]},
    {"molecule": "scFv (TCT1067)-MMAF-C5 ADC 2 (DAR 7.1) (scFv, MMAF-C5 on lysine residues; DAR 8.6 by AAA, 5.5 by MS, average 7.1, also called scFv (TCT1067)-MMAF DAR 8.7) scFv: SGSGGSGQVQLVQSGAEVKKPGESLKISCKGSGYSFTSYWIAWVRQMPGKGLEYMGLIYPGDSDTKYSPSFQGQVTISVDKSVSTAYLQWSSLKPSDSAVYFCARHDVGYCTDRTCAAWPEWLGVWGQGTLVTVSSGGGGSGGGGSGGGGSQSVLTQPPSVSAAPGQKVTISCSGSSSNIGNNYVSWYQQLPGTAPKLLIYGHTNRPAGVPDRFSGSKSGTSASLAISGFRSEDEADYYCASWDYTLSGWVFGGGTKLTVLMASMTGGQQMG", "values": [
      {"measurement": "Kd", "setting": "[6]", "value": 0.0038, "unit": "nM"},
      {"measurement": "koff", "setting": "[6]", "value": "1.7e-05", "unit": "s⁻¹"},
      {"measurement": "kon", "setting": "[6]", "value": "4.6e+06", "unit": "M⁻¹ s⁻¹"}
    ]}
  ]
}
